Measured values from patent publication US20030235558A1.

Target: ^125I-labeled multiubiquitin chains
Assay: GST fusion on glutathione agarose beads, ^125I-labeled multiubiquitin chains, gamma-counting

Multiubiquitin Chain Bound (%) | Multiubiquitin Chain Bound cpm [cpm] | Substance
100 | 5210 | GST fused p62 ubiquitin binding region (GST.p62C259) (from UniProt O08623 363-439)
17 | 877 | GST fused p62 ubiquitin binding region mutant L394/L395 → A/A (from UniProt O08623 363-439)
